Results on 39 sequences are retold here after the supplement of paper PMC7877785.

The nature of the series: self-splicing fitness, log relative to wild type (ln ratio); higher = more splicing; Tetrahymena group I intron in knt gene, E. coli kanamycin selection, DiMSum; sequences stand for … in CUCUCU…GGAGGGAAAAGUUAUCAGGCAUGCACCUGGUAGCUAGUCUUUAAACCAAUAGAUUGCAUCGGUUUAAAAGGCAAGACCGUCAAAUUGCGGGAAAGGGGUCAACAGCCGUUCAGUACCAAGUCUCAGGGGAAACUUUGAGAUGGCCUUGCAAAGGGUAUGGUAAUAAGCUGACGGACAUGGUCCUAACCACGCAGCCAAGUCCUAAGUCAACAGAUCUUCUGUUGAUAUGGAUGCAGUUCACAGACUAAAUGUCGGUCGGGGAAGAUGUAUUCUUCUCAUAAGAUAUAGUCGGACCUCUCCUUAAUGGGAGCUAGCGGAUGAAGUGAUGCAACACUGGAGCCGCUGGGAACUAAUUUGUAUGCGAAAGUAUAUUGAUUAGUUUUGGAGUACUCGUGGUCG
The gist of the method: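 Library with all eight P1ex-region intron nucleotides randomised, intron inside the knt kanamycin-resistance gene on pET-22b(+), in E. coli BL21(DE3). Cells grew overnight at 37°C or 30°C on LB agar with or without 25 μg/mL kanamycin (plus 100 μg/mL carbenicillin, 50 μM IPTG, 0.2% rhamnose), in six replicate transformations. Pooled colonies were amplicon-sequenced on Illumina HiSeq 2500. DiMSum fitness is the error-weighted combination of wild-type-normalised replicate fold changes, kanamycin versus none.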

± gives the uncertainty stated by the source.

Regarding UCUAAGCAAUAUUACGUAGU, the “self-splicing fitness (ln)” value runs as follows: (30 °C) -0.857 ± 0.05; (37 °C) -0.481 ± 0.069.

Take UCUAAGCAAUAUUACGUCGU: the “self-splicing fitness (ln)” value (30 °C) was -1.19 ± 0.1 and the “self-splicing fitness (ln)” value (37 °C) is -0.695 ± 0.12.

In the case of UCUAAGCAAUAUUACGUGCA, the “self-splicing fitness (ln)” value reads like this: (30 °C) -1.2 ± 0.12; (37 °C) -0.538 ± 0.13.

In the case of UCUAAGCAAUAUUACGUUGG, the “self-splicing fitness (ln)” value (30 °C) was -1.6 ± 0.064 and the “self-splicing fitness (ln)” value (37 °C) was -1.37 ± 0.086.

Regarding UCUCAGCAAUAUUACGACCA, the “self-splicing fitness (ln)” value (30 °C) was -0.757 ± 0.13 and the “self-splicing fitness (ln)” value (37 °C) is -0.615 ± 0.14.

Turning to UCUCAGCAAUAUUACGACGC, the “self-splicing fitness (ln)” value (37 °C) was 0.221 ± 0.23.

For UCUCAGCAAUAUUACGACUC, the “self-splicing fitness (ln)” value by setting is: (30 °C) -3.38 ± 0.38; (37 °C) -2.02 ± 0.33.

On to UCUCAGCAAUAUUACGAGCU, for which the “self-splicing fitness (ln)” value runs as follows: (30 °C) -1.48 ± 0.086; (37 °C) -0.552 ± 0.12.

UCUCAGCAAUAUUACGAUAC: the “self-splicing fitness (ln)” value is -1.92 ± 0.28 (30 °C) and -2.46 ± 0.45 (37 °C).

As to UCUCAGCAAUAUUACGAUCG, the “self-splicing fitness (ln)” value runs as follows: (30 °C) -1.29 ± 0.12; (37 °C) -0.618 ± 0.15.

In the case of UCUCAGCAAUAUUACGCAAU, the “self-splicing fitness (ln)” value is -2.45 ± 0.23 (30 °C) and -1.89 ± 0.23 (37 °C).

In the case of UCUCAGCAAUAUUACGCAUA, the “self-splicing fitness (ln)” value (30 °C) is -2.22 ± 0.13 and the “self-splicing fitness (ln)” value (37 °C) was -0.634 ± 0.12.

UCUCAGCAAUAUUACGCCUC: the “self-splicing fitness (ln)” value reads like this: (30 °C) -3.12 ± 0.27; (37 °C) -2.27 ± 0.29.

For the sequence UCUCAGCAAUAUUACGGACU, the “self-splicing fitness (ln)” value runs as follows: (30 °C) -1.23 ± 0.062; (37 °C) -0.345 ± 0.088.

In the case of UCUCAGCAAUAUUACGGCCG, the “self-splicing fitness (ln)” value (37 °C) was -2.73 ± 0.38.

As for UCUCAGCAAUAUUACGUAAG, the “self-splicing fitness (ln)” value is -2.07 ± 0.12 (30 °C) and -1.17 ± 0.13 (37 °C).

With UCUCAGCAAUAUUACGUACU, the “self-splicing fitness (ln)” value (30 °C) was -3.39 ± 0.28 and the “self-splicing fitness (ln)” value (37 °C) was -1.2 ± 0.19.

Take UCUCAGCAAUAUUACGUAUA: the “self-splicing fitness (ln)” value (30 °C) was -2.86 ± 0.17 and the “self-splicing fitness (ln)” value (37 °C) was -1.32 ± 0.13.

With UCUCAGCAAUAUUACGUCAU, the “self-splicing fitness (ln)” value reads like this: (30 °C) -3.13 ± 0.2; (37 °C) -3.29 ± 0.27.

Turning to UCUCAGCAAUAUUACGUCGU, the “self-splicing fitness (ln)” value is -2.11 ± 0.091 (30 °C) and -1.91 ± 0.11 (37 °C).

As for UCUCAGCAAUAUUACGUCUU, the “self-splicing fitness (ln)” value (30 °C) was -3.25 ± 0.17 and the “self-splicing fitness (ln)” value (37 °C) is -2.83 ± 0.15.

As for UCUCAGCAAUAUUACGUUGG, the “self-splicing fitness (ln)” value reads like this: (30 °C) -3.58 ± 0.14; (37 °C) -3.73 ± 0.23.

As to UCUCAGCAAUAUUACGUUUG, the “self-splicing fitness (ln)” value runs as follows: (30 °C) -4.44 ± 0.19; (37 °C) -3.1 ± 0.15.

In the case of UCUGAGCAAUAUUACGCAAG, the “self-splicing fitness (ln)” value is, setting by setting: (30 °C) -3.36 ± 0.18; (37 °C) -2.16 ± 0.19.

UCUGAGCAAUAUUACGCCCU: the “self-splicing fitness (ln)” value (37 °C) was -1.62 ± 0.33.

Turning to UCUGAGCAAUAUUACGCGGC, the “self-splicing fitness (ln)” value (30 °C) was -4.16 ± 0.47 and the “self-splicing fitness (ln)” value (37 °C) is -3.58 ± 0.33.

Take UCUGAGCAAUAUUACGCGUA: the “self-splicing fitness (ln)” value is, setting by setting: (30 °C) -2.5 ± 0.19; (37 °C) 0.763 ± 0.13.

For UCUGAGCAAUAUUACGCGUG, the “self-splicing fitness (ln)” value (30 °C) was -2.36 ± 0.16 and the “self-splicing fitness (ln)” value (37 °C) is -0.768 ± 0.11.

With UCUGAGCAAUAUUACGCUCC, the “self-splicing fitness (ln)” value (30 °C) was -2.04 ± 0.49.

Consider UCUGAGCAAUAUUACGCUGG, for which the “self-splicing fitness (ln)” value (30 °C) is -2 ± 0.16 and the “self-splicing fitness (ln)” value (37 °C) was -1.11 ± 0.17.

As for UCUGAGCAAUAUUACGGACG, the “self-splicing fitness (ln)” value was -1.17 ± 0.35 (30 °C) and -2.21 ± 0.45 (37 °C).

Take UCUGAGCAAUAUUACGGCAU: the “self-splicing fitness (ln)” value (30 °C) was -2.79 ± 0.27.

With UCUGAGCAAUAUUACGGCUA, the “self-splicing fitness (ln)” value (30 °C) is -3.33 ± 0.42 and the “self-splicing fitness (ln)” value (37 °C) is -2.58 ± 0.29.

UCUGAGCAAUAUUACGGGUG: the “self-splicing fitness (ln)” value is -3.83 ± 0.19 (30 °C) and -2.42 ± 0.14 (37 °C).

Regarding UCUGAGCAAUAUUACGGUAA, the “self-splicing fitness (ln)” value was -2.84 ± 0.33 (30 °C) and -2.24 ± 0.3 (37 °C).

Take UCUGAGCAAUAUUACGUAAU: the “self-splicing fitness (ln)” value runs as follows: (30 °C) -3.33 ± 0.23; (37 °C) -2.12 ± 0.29.

Turning to UCUGAGCAAUAUUACGUCGA, the “self-splicing fitness (ln)” value runs as follows: (30 °C) -0.0432 ± 0.089; (37 °C) 0.353 ± 0.12.

Take UCUGAGCAAUAUUACGUGCG: the “self-splicing fitness (ln)” value is, setting by setting: (30 °C) -3 ± 0.1; (37 °C) -1.34 ± 0.09.

For UCUGAGCAAUAUUACGUGUU, the “self-splicing fitness (ln)” value reads like this: (30 °C) -3.93 ± 0.27; (37 °C) -2.55 ± 0.23.
